Measurements: patent publication US20130266958A1 (INTERNATIONAL INSTITUTE OF CANCER IMMUNOLOGY, published 2013)

Key:
Test in all cases: HPLC folding test (Superdex 200), HLA class II monomer protein with 50-fold molar peptide, against solvent only
[1] = target: T1, HLA class II monomer protein DRB1* 0101 (human)
T1 construct: Soluble MHC class II monomer protein used in the HPLC folding test
Method: (§1) After reacting the solution at 37° C., the retention time was analyzed using HPLC.
(§2) As a folding buffer, a 10% amount of a mixed solution of an HLA class II monomer protein and a peptide was added. The amount of the folding buffer added was calculated using the following calculation equation.
(§3) To a glass vial charged with an HLA class II monomer protein, a peptide solution and a folding buffer were added in a calculated amount, and the mixture was allowed to stand at 37° C. overnight. HPLC (Waters 2695 Separation Module) was started, and a Seperdex 200 column was equilibrated with an equilibrating buffer. To all samples, 300 μL of the equilibrate buffer was added and well mixed, and a 100 μL portion of the mixture was used as a sample injection volume to calculate the retention time. Analysis time was 50 minutes. The criterion for the folding of an HLA class II monomer protein with a peptide is a shift of the retention time of not less than 0.1 minute as compared with a control (solvent only).

[2] = target: T2, HLA class II monomer protein DRB1* 0803 (human)
T2 construct: Soluble MHC class II monomer protein used in the HPLC folding test; also called HLA-DRB1* 0803 molecule
Method: as §1, §2, §3

[3] = target: T3, HLA class II monomer protein DRB1* 0901 (human)
T3 construct: Soluble MHC class II monomer protein used in the HPLC folding test; also called HLA-DRB1* 0901 molecule
Method: as §1, §2, §3

[4] = target: T4, HLA class II monomer protein DRB4* 0101 (human)
T4 construct: Soluble MHC class II monomer protein used in the HPLC folding test
Method: as §1, §2, §3

[5] = target: T5, HLA class II monomer protein DRB1* 0405 (human)
T5 construct: Soluble MHC class II monomer protein used in the HPLC folding test
Method: as §1, §2, §3

[6] = target: T6, HLA class II monomer protein DRB1* 1502 (human)
T6 construct: Soluble MHC class II monomer protein used in the HPLC folding test; also called HLA-DRB1* 1502 molecule
Method: as §1, §2, §3

[7] = target: T7, HLA class II monomer protein DRB1* 1501 (human)
T7 construct: Soluble MHC class II monomer protein used in the HPLC folding test; also called HLA-DRB1* 1501 molecule
Method: as §1, §2, §3

Measured: degree of shift of the retention time

B1: WT1-332 (a peptide consisting of the amino acid sequence depicted in SEQ ID NO:2) (peptide)
peptide: KRYFKLSHLQMHSRKH
notes: Synthetic peptide; part of human WT1 protein; also called WT1 peptide
≥ 0.1 min: [1] | [2] | [3] | [4] | [5] | [6] | [7]
